Kd data for one molecule are collected here from publication PMC9249894 (2022).

Broadly, the Kd is the free concentration of one partner at which half of the binding sites on the other are occupied at equilibrium, for simple one-to-one binding. A lower Kd goes with higher affinity.

For this assay, the target named is Ubiquitin (Homo sapiens, UniProt P0CG48). In words: NMR titration.

B1: CIN85 SH3c 263-333 (protein)
chain: DSRTKSKDYCKVIFPYEAQNDDELTIKEGDIVTLINKDCIDVGWWEGELNGRRGVFPDNFVKLLPPDFEKE
Regarding B1, the Kd is 370 µM.
